How the values were obtained:
Cyno PD-L1 = Cyno PD-L1 (cyno, UniProt G7PSE7 19-238); test: SPR (Carterra), antibody on chip, soluble antigen
[1] = molecular target: T1, Human PD-L1 with His tag (AcroBiosystems) (human, UniProt Q9NZQ7 19-238); test: SPR (Carterra), antibody on chip, soluble antigen
T1 construct: Bought protein; also called hPD-L1; not shown: His tag

[2] = molecular target: T2, Human NKG2A & CD94 with mouse IgG2a Fc tag (AcroBiosystems) (human, UniProt P26715 94-233; Q13241 32-179, limits assumed); test: SPR (Carterra), antibody on chip, soluble antigen
T2 construct: Bought soluble antigen of the Carterra assay; also called hNKG2A; not shown: mouse IgG2a Fc tag

PD-L1 expressed on cells [3] = molecular target: T3, PD-L1 expressed on cells (UniProt Q9NZQ7 19-290, limits assumed); test: flow cytometry on MC/CAR cells expressing PD-L1
T3 construct: whole, on cells; also called MC/CAR cells expressing PD-L1; PD-L1+MDA-MB-231 cells
Method: (§1) Cells were collected by centrifugation at 400×g for 7 minutes and primary antibody was removed. 50 μL per well of AF488 goat anti human IgG Fab (Jackson Immuno Research 109-547-003) at 1:100 dilution was added. Plates were placed at 4° C. for 30 minutes.
(§2) Cells were collected by centrifugation at 400×g for 7 minutes and secondary antibody was removed. Cells were resuspended in 50 μL per well of PBS and analyzed by flow cytometry. Binding curves were calculated using the mean fluorescence intensity (MFI) of the FITC fluorescence signal on the cells. Bispecific antibody binding was evaluated in KHYG-1 cells expressing endogenous NKG2A and in MC/CAR cells expressing PD-L1. Cells were harvested and assayed for binding as described above.

[4] = molecular target: T4, NKG2A expressed on KHYG-1 cells (endogenous) (human, UniProt P26715 1-233; Q13241 1-179); test: flow cytometry competition; inhibition of HLA-E tetramer binding to KHYG-1 cells
T4 construct: whole, on cells; Surface NKG2A copy number of approximately 10-20K; also called KHYG-1 cells expressing endogenous NKG2A; NKG2A-expressing cells
Method: 15 μL per well of binder dilution at 2× concentration was plated in a 96-well plate (Costar 3897). 15 μL per well of cell suspension at 5×10⁶ cells per mL was added. Plates were placed at 4° C. for 30 minutes. Following the incubation, 5 μL per well of Fc block (BD Pharmingen Cat #564220) was added at a final concentration of 500 ng per well. Plates were placed at 4° C. for 10 minutes. […] Plates were placed at 4° C. for 1 hour. Following the incubation, 100 μL per well of PBS was added and plate was centrifuged at 400×g for 7 minutes. Supernatant was removed by flicking the plate. Cells were resuspended in 50 μL per well of PBS and analyzed by flow cytometry (Intellicyt).

[5] = molecular target: T4, NKG2A expressed on KHYG-1 cells …; test: flow cytometry on KHYG-1 cells expressing endogenous NKG2A
Method: as §1, §2

PD-L1 expressed on cells [6] = molecular target: T3, PD-L1 expressed on cells; test: cell-based or functional assay

T4 sequence (P26715 whole entry, chain 1 of 2): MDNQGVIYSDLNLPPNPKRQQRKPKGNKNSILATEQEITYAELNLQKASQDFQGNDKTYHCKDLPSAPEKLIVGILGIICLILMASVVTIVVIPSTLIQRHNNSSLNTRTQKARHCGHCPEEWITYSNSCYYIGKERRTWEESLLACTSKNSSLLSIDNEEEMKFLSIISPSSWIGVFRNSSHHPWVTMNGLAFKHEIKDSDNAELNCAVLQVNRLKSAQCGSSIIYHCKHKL
T4 sequence (Q13241 whole entry, chain 2 of 2): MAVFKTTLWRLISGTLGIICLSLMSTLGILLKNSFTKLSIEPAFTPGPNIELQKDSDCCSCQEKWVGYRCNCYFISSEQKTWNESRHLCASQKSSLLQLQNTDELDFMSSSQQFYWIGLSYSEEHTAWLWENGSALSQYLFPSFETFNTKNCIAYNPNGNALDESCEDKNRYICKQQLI
Chain of Cyno PD-L1 (G7PSE7 entry or part of it limits assumed): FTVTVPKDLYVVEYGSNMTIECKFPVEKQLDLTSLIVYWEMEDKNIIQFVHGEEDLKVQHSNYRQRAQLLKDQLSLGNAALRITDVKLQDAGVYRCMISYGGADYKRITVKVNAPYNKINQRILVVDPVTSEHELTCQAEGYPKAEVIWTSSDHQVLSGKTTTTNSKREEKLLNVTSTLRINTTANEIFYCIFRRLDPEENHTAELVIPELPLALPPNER
T1 sequence (Q9NZQ7 19-238 limits assumed): as the sequence (G7PSE7 entry or part of it limits assumed) above, with T33A, S34A, N62S, Q68R, R82Q, L173F, A185T, I192T, L215H counted along it
T2 sequence (P26715 94-233 limits assumed, chain 1 of 2): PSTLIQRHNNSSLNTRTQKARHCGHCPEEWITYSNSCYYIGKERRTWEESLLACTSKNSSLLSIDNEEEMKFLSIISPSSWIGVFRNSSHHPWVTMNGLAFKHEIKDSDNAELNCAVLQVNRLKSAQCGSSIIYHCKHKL
T2 sequence (Q13241 32-179 limits assumed, chain 2 of 2): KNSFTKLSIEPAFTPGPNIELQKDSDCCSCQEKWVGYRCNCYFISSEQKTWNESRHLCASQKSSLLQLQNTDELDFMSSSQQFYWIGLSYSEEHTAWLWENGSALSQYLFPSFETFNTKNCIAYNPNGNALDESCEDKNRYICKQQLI
T3 sequence (Q9NZQ7 19-290 limits assumed): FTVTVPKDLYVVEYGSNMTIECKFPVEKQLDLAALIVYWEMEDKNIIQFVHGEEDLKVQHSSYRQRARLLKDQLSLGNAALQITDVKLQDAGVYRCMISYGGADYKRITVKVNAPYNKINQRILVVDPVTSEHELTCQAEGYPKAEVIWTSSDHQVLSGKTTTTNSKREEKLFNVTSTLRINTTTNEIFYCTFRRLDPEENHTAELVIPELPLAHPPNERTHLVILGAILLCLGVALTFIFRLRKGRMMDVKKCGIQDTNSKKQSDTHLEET

Binder	Kd (Cyno PD-L1) [nM]	koff (Cyno PD-L1) [s⁻¹]	kon (Cyno PD-L1) [M⁻¹ s⁻¹]	Kd [1] [nM]	koff [1] [s⁻¹]	kon [1] [M⁻¹ s⁻¹]	Kd [2] [nM]	koff [2] [s⁻¹]	kon [2] [M⁻¹ s⁻¹]	EC50 (PD-L1 expressed on cells [3]) [nM]	EC50 [4] [nM]	EC50 [5] [nM]	IC50 of inhibiting PD-1/PD-L1 interaction in PD-L1+MDA-MB-231 cells (PD-1/PD-L1 Signaling Bioassay, chemiluminescent signal) (PD-L1 expressed on cells [6]) [nM]
P12 × A2A2 (1 × 2 format) (bispecific antibody, One PD-L1 site, two NKG2A sites; also called P12×A2A2, sFc; P12 × A2A2 sFc) heavy 1: DIQMTQSPSSLSASVGDRVTITCRASQSVSSAVAWYQQKPGKAPKLLIYSASSLYSGVPSRFSGSRSGTDFTLTISSLQPEDFATYYCQQFMLEPITFGQGTKVEIKGQPREPQVCTLPPSRDELTKNQVSLTCLVRGFYPSDIAVEWESNGQPENNYKTTPPVLDSDGSFFLYSKLTVDKSRWQQGNVFSCSVMHEALHNHYTQKSLSLSPGKDKTHTCPPCPAPEAAGGPSVFLFPPKPKDTLMISRTPEVTCVVVDVSHEDPEVKFNWYVDGVEVHNAKTKPREEQYNSTYRVVSVLTVLHQDWLNGKEYKCKVSNKALKAPIEKTISKAKGQPREPQVYTLPPSREEMTKNQVSLSCAVKGFYPSDIAVEWESNGQPENNYKTTPPVLDSDGSFFLVSKLTVDKSRWQQGNVFSCSVMHEALHNHYTQKSLSLSPGK light 1: EVQLVESGGGLVQPGGSLRLSCAASGFTFSSYYIHWVRQAPGKGLEWVATINSRGGFTLYADSVKGRFTISADTSKNTAYLQMNSLRAEDTAVYYCARGYTLTPVLDYWGQGTLVTVSSAQPREPQVYTLPPCRDWLTKNQVSLTCLVKGFYPSDIAVEWESNGQPENNYKTTPPVLDSDGSFFLYSKLTVDKSRWQQGNVFSCSVMHEALHNHYTQKSLSLSPGK heavy 2: not shown light 2: EVQLVESGGGLVQPGGSLRLSCAASGFTFSSYYIHWVRQAPGKGLEWVASYVPEDGYTDYADSVKGRFTISADTSKNTAYLQMNSLRAEDTAVYYCARSSDFIPWTSSGGMDYWGQGTLVTVSSASTKGPSVFPLAPSSKSTSGGTAALGCLVKDYFPEPVTVSWNSGALTSGVHTFPAVLQSSGLYSLSSVVTVPSSSLGTQTYICNVNHKPSNTKVDKKVEPKSC	0.12	5e-05	480000	0.15	7e-05	470000	0.15	5e-05	360000	6.49	0.36	0.149	0.689
P12P12 × A2 (2 × 1 format) (bispecific antibody, Two PD-L1 sites, one NKG2A site; also called P12P12 × A2 sFc) heavy 1: DIQMTQSPSSLSASVGDRVTITCRASQSVSSAVAWYQQKPGKAPKLLIYSASSLYSGVPSRFSGSRSGTDFTLTISSLQPEDFATYYCQQFMLEPITFGQGTKVEIKGQPREPQVCTLPPSRDELTKNQVSLTCLVRGFYPSDIAVEWESNGQPENNYKTTPPVLDSDGSFFLYSKLTVDKSRWQQGNVFSCSVMHEALHNHYTQKSLSLSPGKTASSGGSSSGDIQMTQSPSSLSASVGDRVTITCRASQSVSSAVAWYQQKPGKAPKLLIYSASSLYSGVPSRFSGSRSGTDFTLTISSLQPEDFATYYCQQFMLEPITFGQGTKVEIKGQPREPQVCTLPPSRDELTKNQVSLTCLVRGFYPSDIAVEWESNGQPENNYKTTPPVLDSDGSFFLYSKLTVDKSRWQQGNVFSCSVMHEALHNHYTQKSLSLSPGKDKTHTCPPCPAPEAAGGPSVFLFPPKPKDTLMISRTPEVTCVVVDVSHEDPEVKFNWYVDGVEVHNAKTKPREEQYNSTYRVVSVLTVLHQDWLNGKEYKCKVSNKALKAPIEKTISKAKGQPREPQVYTLPPSREEMTKNQVSLSCAVKGFYPSDIAVEWESNGQPENNYKTTPPVLDSDGSFFLVSKLTVDKSRWQQGNVFSCSVMHEALHNHYTQKSLSLSPGK light 1: EVQLVESGGGLVQPGGSLRLSCAASGFTFSSYYIHWVRQAPGKGLEWVATINSRGGFTLYADSVKGRFTISADTSKNTAYLQMNSLRAEDTAVYYCARGYTLTPVLDYWGQGTLVTVSSAQPREPQVYTLPPCRDWLTKNQVSLTCLVKGFYPSDIAVEWESNGQPENNYKTTPPVLDSDGSFFLYSKLTVDKSRWQQGNVFSCSVMHEALHNHYTQKSLSLSPGK heavy 2: not shown light 2: EVQLVESGGGLVQPGGSLRLSCAASGFTFSSYYIHWVRQAPGKGLEWVASYVPEDGYTDYADSVKGRFTISADTSKNTAYLQMNSLRAEDTAVYYCARSSDFIPWTSSGGMDYWGQGTLVTVSSASTKGPSVFPLAPSSKSTSGGTAALGCLVKDYFPEPVTVSWNSGALTSGVHTFPAVLQSSGLYSLSSVVTVPSSSLGTQTYICNVNHKPSNTKVDKKVEPKSC										8.67	46.4	0.827	0.714

The remaining binders from weak to strong by EC50 (PD-L1 expressed on cells [3]), led by results:

Kd (Cyno PD-L1) [nM]	koff (Cyno PD-L1) [s⁻¹]	kon (Cyno PD-L1) [M⁻¹ s⁻¹]	Kd [1] [nM]	koff [1] [s⁻¹]	kon [1] [M⁻¹ s⁻¹]	Kd [2] [nM]	koff [2] [s⁻¹]	kon [2] [M⁻¹ s⁻¹]	EC50 (PD-L1 expressed on cells [3]) [nM]	EC50 [4] [nM]	EC50 [5] [nM]	IC50 of inhibiting PD-1/PD-L1 interaction in PD-L1+MDA-MB-231 cells (PD-1/PD-L1 Signaling Bioassay, chemiluminescent signal) (PD-L1 expressed on cells [6]) [nM]	Binder
									3.23		1.99	0.405	P12P12 × A11 (2 × 1 format) (bispecific antibody, Two PD-L1 sites, one NKG2A site; also called P12P12 × A11 sFc) heavy 1: DIQMTQSPSSLSASVGDRVTITCRASQSVSSAVAWYQQKPGKAPKLLIYSASSLYSGVPSRFSGSRSGTDFTLTISSLQPEDFATYYCQQFMLEPITFGQGTKVEIKGQPREPQVCTLPPSRDELTKNQVSLTCLVRGFYPSDIAVEWESNGQPENNYKTTPPVLDSDGSFFLYSKLTVDKSRWQQGNVFSCSVMHEALHNHYTQKSLSLSPGKTASSGGSSSGDIQMTQSPSSLSASVGDRVTITCRASQSVSSAVAWYQQKPGKAPKLLIYSASSLYSGVPSRFSGSRSGTDFTLTISSLQPEDFATYYCQQFMLEPITFGQGTKVEIKGQPREPQVCTLPPSRDELTKNQVSLTCLVRGFYPSDIAVEWESNGQPENNYKTTPPVLDSDGSFFLYSKLTVDKSRWQQGNVFSCSVMHEALHNHYTQKSLSLSPGKDKTHTCPPCPAPEAAGGPSVFLFPPKPKDTLMISRTPEVTCVVVDVSHEDPEVKFNWYVDGVEVHNAKTKPREEQYNSTYRVVSVLTVLHQDWLNGKEYKCKVSNKALKAPIEKTISKAKGQPREPQVYTLPPSREEMTKNQVSLSCAVKGFYPSDIAVEWESNGQPENNYKTTPPVLDSDGSFFLVSKLTVDKSRWQQGNVFSCSVMHEALHNHYTQKSLSLSPGK light 1: EVQLVESGGGLVQPGGSLRLSCAASGFTFSSYYIHWVRQAPGKGLEWVATINSRGGFTLYADSVKGRFTISADTSKNTAYLQMNSLRAEDTAVYYCARGYTLTPVLDYWGQGTLVTVSSAQPREPQVYTLPPCRDWLTKNQVSLTCLVKGFYPSDIAVEWESNGQPENNYKTTPPVLDSDGSFFLYSKLTVDKSRWQQGNVFSCSVMHEALHNHYTQKSLSLSPGK heavy 2: not shown light 2: EVQLVESGGGLVQPGGSLRLSCAASGFTFSWYYIHWVRQAPGKGLEWVAVIDPISSYTYYADSVKGRFTISADTSKNTAYLQMNSLRAEDTAVYYCARGFDRAMDYWGQGTLVTVSSASTKGPSVFPLAPSSKSTSGGTAALGCLVKDYFPEPVTVSWNSGALTSGVHTFPAVLQSSGLYSLSSVVTVPSSSLGTQTYICNVNHKPSNTKVDKKVEPKSC
0.13	6e-05	470000	0.24	9e-05	380000	0.34	9e-05	270000	1.76	0.42	0.168	0.567	P12 × A11A11 (1 × 2 format) (bispecific antibody, One PD-L1 site, two NKG2A sites; also called P12×A11A11, sFc; P12 × A11A11 sFc) heavy 1: DIQMTQSPSSLSASVGDRVTITCRASQSVSSAVAWYQQKPGKAPKLLIYSASSLYSGVPSRFSGSRSGTDFTLTISSLQPEDFATYYCQQFMLEPITFGQGTKVEIKGQPREPQVCTLPPSRDELTKNQVSLTCLVRGFYPSDIAVEWESNGQPENNYKTTPPVLDSDGSFFLYSKLTVDKSRWQQGNVFSCSVMHEALHNHYTQKSLSLSPGKDKTHTCPPCPAPEAAGGPSVFLFPPKPKDTLMISRTPEVTCVVVDVSHEDPEVKFNWYVDGVEVHNAKTKPREEQYNSTYRVVSVLTVLHQDWLNGKEYKCKVSNKALKAPIEKTISKAKGQPREPQVYTLPPSREEMTKNQVSLSCAVKGFYPSDIAVEWESNGQPENNYKTTPPVLDSDGSFFLVSKLTVDKSRWQQGNVFSCSVMHEALHNHYTQKSLSLSPGK light 1: EVQLVESGGGLVQPGGSLRLSCAASGFTFSSYYIHWVRQAPGKGLEWVATINSRGGFTLYADSVKGRFTISADTSKNTAYLQMNSLRAEDTAVYYCARGYTLTPVLDYWGQGTLVTVSSAQPREPQVYTLPPCRDWLTKNQVSLTCLVKGFYPSDIAVEWESNGQPENNYKTTPPVLDSDGSFFLYSKLTVDKSRWQQGNVFSCSVMHEALHNHYTQKSLSLSPGK heavy 2: not shown light 2: EVQLVESGGGLVQPGGSLRLSCAASGFTFSWYYIHWVRQAPGKGLEWVAVIDPISSYTYYADSVKGRFTISADTSKNTAYLQMNSLRAEDTAVYYCARGFDRAMDYWGQGTLVTVSSASTKGPSVFPLAPSSKSTSGGTAALGCLVKDYFPEPVTVSWNSGALTSGVHTFPAVLQSSGLYSLSSVVTVPSSSLGTQTYICNVNHKPSNTKVDKKVEPKSC

From patent US20260226161A1 (EXELIXIS, published 2026)
